Data taken from patent US20210386788A1, “ER TUNABLE PROTEIN REGULATION” (Obsidian Therapeutics, Inc., priority 2018, published 2021).

B1: OT-001569: ER-DD (T371A, L384M, M421G, N519S, G521R, Y537S) fused to flexi IL12 (protein)
chain: MCHQQLVISWFSLVFLASPLVAGSSLALSLTADQMVSALLDAEPPILYSEYDPTRPFSEASMMGLLTNLADRELVHMINWAKRVPGFVDLALHDQVHLLECAWMEILMIGLVWRSMEHPGKLLFAPNLLLDRNQGKCVEGGVEIFDMLLATSSRFRMMNLQGEEFVCLKSIILLNSGVYTFLSSTLKSLEEKDHIHRVLDKITDTLIHLMAKAGLTLQQQHQRLAQLLLILSHIRHMSSKRMEHLYSMKCKNVVPLSDLLLEMLDAHRLGSIWELKKDVYVVELDWYPDAPGEMVVLTCDTPEEDGITWTLDQSSEVLGSGKTLTIQVKEFGDAGQYTCHKGGEVLSHSLLLLHKKEDGIWSTDILKDQKEPKNKTFLRCEAKNYSGRFTCWWLTTISTDLTFSVKSSRGSSDPQGVTCGAATLSAERVRGDNKEYEYSVECQEDSACPAAEESLPIEVMVDAVHKLKYENYTSSFFIRDIIKPDPPKNLQLKPLKNSRQVEVSWEYPDTWSTPHSYFSLTFCVQVQGKSKREKKDRVFTDKTSATVICRKNASISVRAQDRYYSSSWSEWASVPCSGGGGSGGGGSGGGGSRNLPVATPDPGMFPCLHHSQNLLRAVSNMLQKARQTLEFYPCTSEEIDHEDITKDKTSTVEACLPLELTKNESCLNSRETSFITNGSCLASRKTSFMMALCLSSIYEDLKMYQVEFKTMNAKLLMDPKRQIFLDQNMLAVIDELMQALNFNSETVPQKSSLEEPDFYKTKIKLCILLHAFRIRAVTIDRVMSYLNAS
B2: OT-001791: CD8α leader; Linker (RS); ER (T371A, L384M, M421G, N519S, G521R, Y537S); Furin cleavage site; CD19 CAR; SEQ ID NO. 404 (protein)
chain: MALPVTALLLPLALLLHAARPRSSLALSLTADQMVSALLDAEPPILYSEYDPTRPFSEASMMGLLTNLADRELVHMINWAKRVPGFVDLALHDQVHLLECAWMEILMIGLVWRSMEHPGKLLFAPNLLLDRNQGKCVEGGVEIFDMLLATSSRFRMMNLQGEEFVCLKSIILLNSGVYTFLSSTLKSLEEKDHIHRVLDKITDTLIHLMAKAGLTLQQQHQRLAQLLLILSHIRHMSSKRMEHLYSMKCKNVVPLSDLLLEMLDAHRLGTGAEDPRPSRKRRSLGDVGEIVMTQSPATLSLSPGERATLSCRASQDISKYLNWYQQKPGQAPRLLIYHTSRLHSGIPARFSGSGSGTDYTLTISSLQPEDFAVYFCQQGNTLPYTFGQGTKLEIKGGGGSGGGGSGGGGSQVQLQESGPGLVKPSETLSLTCTVSGVSLPDYGVSWIRQPPGKGLEWIGVIWGSETTYYSSSLKSRVTISKDNSKNQVSLKLSSVTAADTAVYYCAKHYYYGGSYAMDYWGQGTLVTVSSTTTPAPRPPTPAPTIASQPLSLRPEACRPAAGGAVHTRGLDFACDIYIWAPLAGTCGVLLLSLVITLYCKRGRKKLLYIFKQPFMRPVQTTQEEDGCSCRFPEEEEGGCELRVKFSRSADAPAYKQGQNQLYNELNLGRREEYDVLDKRRGRDPEMGGKPRRKNPQEGLYNELQKDKMAEAYSEIGMKGERRRGKGHDGLYQGLSTATKDTYDALHMQALPPR
B3: OT-001737: ER-DD fused to flexi IL12, with or without intervening furin site (protein)
chain: MCHQQLVISWFSLVFLASPLVAGSSLALSLTADQMVSALLDAEPPILYSEYDPTRPFSEASMMGLLTNLADRELVHMINWAKRVPGFVDLALHDQVHLLECAWMEILMIGLVWRSMEHPGKLLFAPNLLLDRNQGKCVEGGVEIFDMLLATSSRFRMMNLQGEEFVCLKSIILLNSGVYTFLSSTLKSLEEKDHIHRVLDKITDTLIHLMAKAGLTLQQQHQRLAQLLLILSHIRHMSSKRMEHLYSMKCKNVVPLSDLLLEMLDAHRLRTKRIWELKKDVYVVELDWYPDAPGEMVVLTCDTPEEDGITWTLDQSSEVLGSGKTLTIQVKEFGDAGQYTCHKGGEVLSHSLLLLHKKEDGIWSTDILKDQKEPKNKTFLRCEAKNYSGRFTCWWLTTISTDLTFSVKSSRGSSDPQGVTCGAATLSAERVRGDNKEYEYSVECQEDSACPAAEESLPIEVMVDAVHKLKYENYTSSFFIRDIIKPDPPKNLQLKPLKNSRQVEVSWEYPDTWSTPHSYFSLTFCVQVQGKSKREKKDRVFTDKTSATVICRKNASISVRAQDRYYSSSWSEWASVPCSGGGGSGGGGSGGGGSRNLPVATPDPGMFPCLHHSQNLLRAVSNMLQKARQTLEFYPCTSEEIDHEDITKDKTSTVEACLPLELTKNESCLNSRETSFITNGSCLASRKTSFMMALCLSSIYEDLKMYQVEFKTMNAKLLMDPKRQIFLDQNMLAVIDELMQALNFNSETVPQKSSLEEPDFYKTKIKLCILLHAFRIRAVTIDRVMSYLNAS
B4: OT-001356: IL12-CD19 CAR tandem construct listed without ER DD mutation in Table 13 (control) (protein)
chain: IWELKKDVYVVELDWYPDAPGEMVVLTCDTPEEDGITWTLDQSSEVLGSGKTLTIQVKEFGDAGQYTCHKGGEVLSHSLLLLHKKEDGIWSTDILKDQKEPKNKTFLRCEAKNYSGRFTCWWLTTISTDLTFSVKSSRGSSDPQGVTCGAATLSAERVRGDNKEYEYSVECQEDSACPAAEESLPIEVMVDAVHKLKYENYTSSFFIRDIIKPDPPKNLQLKPLKNSRQVEVSWEYPDTWSTPHSYFSLTFCVQVQGKSKREKKDRVFTDKTSATVICRKNASISVRAQDRYYSSSWSEWASVPCSGGGGSGGGGSGGGGSRNLPVATPDPGMFPCLHHSQNLLRAVSNMLQKARQTLEFYPCTSEEIDHEDITKDKTSTVEACLPLELTKNESCLNSRETSFITNGSCLASRKTSFMMALCLSSIYEDLKMYQVEFKTMNAKLLMDPKRQIFLDQNMLAVIDELMQALNFNSETVPQKSSLEEPDFYKTKIKLCILLHAFRIRAVTIDRVMSYLNASGS

How the values were obtained:
Format in all cases: cell-based, human
HEK293T cells [1] = assay: CD19 CAR cell surface expression in transfected HEK293T cells (FACS with CD19-Fc); settings: measure of transfection efficiency
Procedure: (§1) HEK293T cells were transiently transfected with 1 μg DNA from each construct listed in the first column of Table 13 and incubated in DMEM with 10% FBS at 37° C., 5% CO2 for 24 hrs. Following the incubation, 1 μM of Bazedoxifene (BZD) or vehicle was added and cells were further incubated for 24 hrs. Following the incubation, CD19 CAR expression on the cell surface was quantified using FACS with CD19-Fc reagent, as a measure of transfection efficiency. IL12 levels in the media were quantified using MSD assay for p40. The IL12 and CD19 levels are shown in Table 13, where SD indicates standard deviation and SR indicates stabilization ratio. The stabilization ratio was calculated using the average IL12 values.

HEK 293T cells = assay: IL12 expression of ER-DD flexi IL12 constructs in transiently transfected HEK 293T cells (MSD assay); settings: for IL12 expression, 1 μM BZD / IL12 expression, Vehicle: HEK 293T transiently transfected, MSD assay; for IL12 expression, 1 μM BZD: 1 μM Bazedoxifene 24 hours; for IL12 expression, Vehicle: vehicle control 24 hours; for Stabilization Ratio: IL12 with 1 μM BZD versus vehicle
Procedure: HEK 293T cells were transiently transfected with constructs containing ER-DDs fused to flexi IL12 with or without intervening furin site to generate constructs: OT-001569, OT-001737. Cells were then treated with 1 μM Bazedoxifene (BZD) or vehicle control for 24 hours and IL12 levels were measured by MSD assay Table 11.

HEK293T cells [2] = assay: IL12 p40 in media of HEK293T cells transfected with IL12-CD19 CAR tandem constructs (MSD assay); settings: for IL12p40 DMSO Average: vehicle 24 hrs (absence of ligand)
Procedure: as §1

primary T cells = assay: CD19 CAR expression on lentivirus transduced primary T cells (flow cytometry with CD19-Fc); settings: both day 7 and day 9
Procedure: Primary T cells were activated with CD3/CD28 Dynabeads at 3:1 Bead: Cell ratio overnight, then transduced with OT-001792 lentivirus. On day 7 of the T cell expansion, CAR expression was measured by flow cytometry with CD19-Fc on cells treated overnight in the presence (34% positive) or absence (0.6% positive) of 1 μM Bazedoxifene. After the T cells had expanded for 10 days, they were mixed with CD19-expressing Nalm6 target cells at ratios of 10:1 and 2.5:1 total T cells:Nalm6 cells and cultured for 3 days.
Primary T cells were activated with CD3/CD28 Dynabeads at 3:1 Bead:Cell ratio overnight, then transduced with lentiviruses derived from the indicated constructs. On day 7 or day 9 (as indicated) of the T cell expansion, CAR expression was measured by flow cytometry with CD19-Fc on cells incubated for 24 hours with 1 μM Bazedoxifene or 1 μM Raloxifene or DMSO. […] At day 9 the basal percentage of CAR positive cells for the same constructs was even lower at approximately 20% i.e. in the absence of ligand and about 32-45% in the presence of either ligand. […] This was true at both day 7 and day 9.
Human donor T cells were thawed and activated overnight in the presence of CD3/CD28 Dynabeads at 3:1 bead:cell ratio, then transduced with lentivirus related to OT-002158, or OT-001786. Cells were expanded over the course of 10 days, with fresh media added to maintain cells at around 0.5×10^6 cells/mL. On day 9, an aliquot of cells was removed, and treated with 1 μM Bazedoxifene overnight or DMSO vehicle control, then stained with 10 μg/mL CD19-Fc. Histograms showing CAR expression from a Live Singlet cell gate were plotted.
Human donor T cells were thawed and activated overnight in the presence of CD3/CD28 Dynabeads at 3:1 bead:cell ratio, then transduced with lentivirus from the constructs. Cells were expanded over the course of 10 days, and fresh media was added to maintain cells around 0.5×10^6 cells/ml. On day 9, an aliquot of cells were removed, treated with 1 μM Bazedoxifene overnight, then stained with 10 μg/mL CD19-Fc. Histograms showing CAR expression from a Live Singlet cell gate were plotted. The data are shown in Table 19 and Table 20 where data are presented as % CAR positive cells, where SR indicates stabilization ration.
T cells were transduced with OT-00179, OT-002158, OT-001407 or empty vector and expanded as described herein, frozen on day 10. To confirm the expression and function of this large scale expansion for in vivo use, cells were thawed and incubated overnight in the presence of CD3/28 beads (1:1 bead:cell ratio) and with or without 1 μM Bazedoxifene. FACS staining with 1 μg/mL CD19-Fc was performed to measure the surface expression of CD19-CAR. The data are provided in Table 21 as the percentage CAR positive cells.

Molecule	Surface CAR (HEK293T cells [1]) [%]	IL12 expression, 1 μM BZD (HEK 293T cells)	IL12 expression, Vehicle (HEK 293T cells)	Stabilization Ratio (HEK 293T cells)	IL12p40 1 μM BZD Average (HEK293T cells [2]; HEK293T, 1 μg DNA, 1 μM Bazedoxifene 24 hrs) [pg/mL]	IL12p40 DMSO Average (HEK293T cells [2]; HEK293T, 1 μg DNA) [pg/mL]	SR (stabilization ratio) (HEK293T cells [2]; calculated using the average IL12 values, 1 μM BZD versus DMSO)	percentage of CAR positive cells (primary T cells; absence of ligand)	percentage of CAR positive cells (primary T cells; presence of ligand)
B1	0.1	109878	11529.1	9.5	75542.57	6443.64	11.72		
B2								undetectable	about 5%
B3		79706.8	10186.4	7.8					
B4	40					203531.67			
